{"source": "paper PMC5768801", "about": "“The PII signaling protein from red algae represents an evolutionary link between cyanobacterial and Chloroplastida PII proteins” (Scientific Reports, 2018)", "key": {"ScNAGK": {"biological_target": "T1, ScNAGK (Synechocystis sp., UniProt P73326)", "T1 sequence (P73326 1-297)": "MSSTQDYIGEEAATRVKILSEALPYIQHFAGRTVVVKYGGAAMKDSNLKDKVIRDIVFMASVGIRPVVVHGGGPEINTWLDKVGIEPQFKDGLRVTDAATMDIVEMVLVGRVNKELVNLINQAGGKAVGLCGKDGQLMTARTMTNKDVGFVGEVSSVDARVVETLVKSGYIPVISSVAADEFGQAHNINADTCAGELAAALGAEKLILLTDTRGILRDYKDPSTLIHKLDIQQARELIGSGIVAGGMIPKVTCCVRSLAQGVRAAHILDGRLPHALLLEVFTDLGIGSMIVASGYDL", "assay": "Coupled NAGK activity assay, ScNAGK", "assay_type": "biochemical, Synechocystis sp. PCC 6803", "method": "The assess the activity of ScNAGK was measured with an enzyme assay, in which the ADP production was coupled to the NADH oxidation by the auxiliary enzymes pyruvate kinase and lactate dehydrogenase according to previously described procedure[32],[50]. […] The oxidation reaction of NADH was recorded for 10 min using spectrophotometer (SPECORD 210 PLUS, Analytik Jena AG) at 340 nm. […] The NADH molar absorption coefficient is 6178 L mol^−1 cm^−1 for at 340 nm, which was used for calculation. […] From the velocity slopes, the enzymatic constants Km, Kcat and IC50 were calculated using the Graph-Pad Prism software (GraphPad Software, USA)."}, "PipX": {"tested_on": "PipX", "assay": "Pull-down analysis of PipX binding to PII proteins", "set-up": "species or system Synechocystis sp. PCC 6803", "details": "10 µM proteins, 1 mM ADP, Strep-Tactin column, Tricine-SDS-PAGE", "excerpt": "In cyanobacteria, PipX is the second known receptor of PII signaling. We questioned whether red algal PII proteins have lost or retained the ability to bind to PipX. To test this possibility, we first analyzed complex formation using pull-down experiments (Supplementary Fig. S3A and B). The PII protein from Synechocystis sp. PCC 6803 (ScPII) was mixed with PipX in the presence of ADP and then the Strep-tagged PII was immobilized on the Strep-Tactin II column (Supplementary Fig. S3A). After extensive washes, the proteins were eluted with desthiobiotin and analyzed by Tricine-SDS-PAGE. Both proteins were detected in the elution. Thus, confirming previous studies[16]–[18], cyanobacterial PII was bound to PipX. When PpPII in the presence of PipX was immobilized on the column, no PipX signal was detected in the elution (Supplementary Fig. S3B).\nFor complex formation, the binding reactions were done in 300 μl of buffer (100 mM Tris HCl, pH 8.0, 150 mM NaCl, 1 mM EDTA) by adding 10 µM of purified proteins: His6-ScPipX and Strep-tag ScPII or Strep-tag PpPII. […] The eluted fractions were analyzed by Tricine-SDS PAGE[51] and stained with SimplyBlue™ SafeStain (Invitrogen).\n(§1) Figure S3. […] Complex formation between PipX and ScPII (A) or PpPII (B) was assessed by pull-down. […] (C) Complex formation between PipX and PII proteins was assessed by SPR. […]"}, "ScPipX": {"tested_on": "ScPipX", "assay": "SPR analysis of PipX binding to PII proteins", "set-up": "species or system Synechocystis sp. PCC 6803", "details": "His-tagged ScPipX immobilized, 200 nM PII protein, ADP", "procedure": "Additionally, we assessed whether PpPII could bind to PipX by surface plasmon resonance (SPR) spectroscopy (Supplementary Fig. S3C). The N-terminally His-tagged ScPipX was immobilized on a Ni-HTG sensor chip and probed with ScPII together with effector molecule ADP. Interaction between PpPII and PipX was not observed.\nSPR experiments were conducted using a ProteOn XPR36 system (Bio-Rad) in HBS buffer (10 mM HEPES, 150 mM NaCl, 1 mM MgCl2, and 0.005% Tween 20, pH 7.5) at 25 °C. Immobilization of ligand, 1 µM His6-PipX (200 µl), was performed on a Ni^+-loaded HTG sensor chip (Bio-Rad Laboratories) in the vertical orientation into the channel L2, and the continuous running buffer was used at a flow rate of 30 µl/min. The immobilization level was approximately 3000 resonance units (RU). […] The binding of PII proteins to PipX was recorded as a response signal difference of L2 and L1. All binding sensorgrams were collected, processed and analyzed using the integrated ProteOn Manager software (Bio-Rad Laboratories).\nas §1"}}, "data": [{"molecule": "PpPII: PII from the red alga Porphyra purpurea, recombinant Strep-tagged or His-tagged protein (protein, left off: Strep-tag II, C-terminal, kept, PII from the red alga Porphyra purpurea, recombinant Strep-tagged or His-tagged protein) MKKIEAIIRPFKLNEVKLALVKGGIGGMTVVKVSGFGRQKGQTERYKGSEYSIDIIDKIKIEIIVSDDKVNSITEIIIKTAKTGEIGDGKIFISDVEQVIRIRTNDLNSAAL", "values": [{"measurement": "raise of the IC50 for arginine on addition of PpPII to ScNAGK", "setting": "ScNAGK; 50 mM NAG, 10 mM ATP, without glutamine", "value": "approximately 4 fold"}, {"measurement": "increase of the overall NAGK catalytic efficiency by complex formation with PpPII", "setting": "ScNAGK; PpPII-complexed versus free ScNAGK", "value": "about 4 fold"}, {"measurement": "complex formation with PipX (pull-down)", "setting": "PipX", "value": "did not interact with PipX"}, {"measurement": "interaction with PipX (SPR)", "setting": "ScPipX", "value": "not observed"}]}]}
